Non-standard residues stand in square brackets, D forms with d. No end group written: not given here. *: point of attachment. Me2 = dimethyl-lysine (dimethyl-epsilon-NH2-L-lysine); For = O=C*

Common to all, as to format: biochemical
The target of test [1] is T1, biotinidase (Homo sapiens, UniProt P43251).
T1 construct: 60 μL of human plasma; from tissue; host or cells: human plasma
T1 sequence (P43251 22-523): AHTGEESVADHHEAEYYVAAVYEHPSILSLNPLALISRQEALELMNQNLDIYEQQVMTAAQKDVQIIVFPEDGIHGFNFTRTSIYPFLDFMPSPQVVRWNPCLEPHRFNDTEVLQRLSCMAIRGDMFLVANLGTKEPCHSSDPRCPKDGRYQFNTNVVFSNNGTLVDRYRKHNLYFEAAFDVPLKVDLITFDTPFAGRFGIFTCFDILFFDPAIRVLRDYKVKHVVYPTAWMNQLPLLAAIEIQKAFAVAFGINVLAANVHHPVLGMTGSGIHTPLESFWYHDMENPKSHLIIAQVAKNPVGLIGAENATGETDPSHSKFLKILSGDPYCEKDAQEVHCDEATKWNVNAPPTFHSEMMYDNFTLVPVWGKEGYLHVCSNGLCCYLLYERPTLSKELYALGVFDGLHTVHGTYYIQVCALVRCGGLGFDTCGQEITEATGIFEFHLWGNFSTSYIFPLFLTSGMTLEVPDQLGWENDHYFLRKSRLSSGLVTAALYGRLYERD
The experiment in a line: Enzymatic biotinylation of synthetic histone H4 peptides by biotinidase. As to conditions: for enzymatic biotinylation by biotinidase, peptide-bound biotin probed with streptavidin peroxidase: human plasma as source of biotinidase, biocytin, 37° C., 45 min. From the text:
It has been proposed that the following catalytic sequence leads to biotinylation in histones (Hymes et al., 1995; Hyme and Wolf, 1999). First, biocytin is cleaved by biotinidase to form an intermediate, cysteine-bound biotin. Second, the biotinyl moiety from the cysteine residue is transferred to the ε-amino group of lysines in histones. In the present study, synthetic peptides were biotinylated enzymatically using human plasma (as source of biotinidase) and biocytin (as source of biotin) as described previously (Hymes et al., 1995). Peptide concentrations in stock solutions were adjusted to 50 mg/L; 20 μL of peptide solution was mixed with 1.88 mL of 50 mmol/L Tris (pH 8.0), 40 μL of 0.75 mmol/L biocytin and 60 μL of human plasma. Samples were incubated […] at 37° C. for 45 min and stored at −70° C. unless stated otherwise.
After enzymatic biotinylation, peptides were electrophoresed using 16% tricine polyacrylamide gels according to the manufacturer's instructions (Invitrogen, Carlsbad, Calif.). Peptides were electroblotted onto polyvinylidene fluoride membranes (Millipore, Bedford, Mass.), which were blocked with 50 mL of 30 g/L BSA. Peptide-bound biotin was probed with streptavidin peroxidase (Stanley et al., 2001).

In test [2] the test system is histone H1. The experiment in a line: Proteolytic digestion of histone H1. Here is the method: Here the inventors determined whether biotin release is mediated by proteolytic digestion of histones. One milligram of histone H1 was dissolved in 100 μl of 20 mM sodium acetate [pH 4.5]. 0.4 microliters of histone solution was mixed with 7.1 μl of nuclear extract containing 20 μg of protein; samples were incubated at 37° C. for 20 min. The following controls were tested: histones incubated without nuclear extract, and histones incubated with 2.5 microliter trypsin [with or without 20 mM of the trypsin inhibitor, phenylmethylsulphonylfluoride (PMSF)]. Reactions were terminated by heating the samples with equal volume of loading buffer at 72° C. for 10 min. Proteins were resolved using 4-12% Bis-Tris gels (Invitrogen, Carlsbad, Calif.) as described (Stanley et al., 2001) and were visualized using coomassie blue.

Test [3] addresses T1, biotinidase. The experiment in a line: Enzymatic biotinylation of synthetic histone H3 peptides by biotinidase. As to conditions: biotinidase and biocytin, 45 min.
Test [4] has as its target T1, biotinidase. The experiment in a line: Enzymatic biotinylation of synthetic histone H2A and H2A.X peptides by biotinidase. As to conditions: human plasma as source of biotinidase, 75 μmol/L biocytin, pH 8.0, 37° C., up to 45 minutes. From the text:
In Examples described above, the inventors developed a procedure to identify amino acid residues in histones that are targets for biotinylation. […] Amino acid substitutions (e.g., lysine-to-alanine substitutions) in synthetic peptides are used to corroborate identification of biotinylation sites. In addition, amino acid modifications (e.g., acetylation of lysines) in peptides can be used to investigate the cross-talk between biotinylation of histones and other known modifications of histones.
Peptides from both the N- and C-terminal regions of histone H2A and H2A.X were included in the analysis of biotinylation sites. […] Reactions were quenched by adding an equal volume of Tricine gel loading buffer (Invitrogen, Carlsbad, Calif.).

Take “7: histone H4 positions 6-15, Dme-K in position 8 (Ac-GGK(Me2)GLGKGGA) [Peptide 7]”: the “enzymatic biotinylation by biotinidase, peptide-bound biotin probed with streptavidin peroxidase” value in test [1] is “decreased substantially”. The same measure, in the same setting: in the case of “GGKGLGKGGA (Ac-GGKGLGKGGA) [Peptide 1, amino acids 6 through 15 in histone H4, native control]” it was “efficiently biotinylated”; in that of “6: histone H4 positions 6-15, Ac-K in position 12 (Ac-GGKGLGK(Ac)GGA) [Peptide 6]”, “decreased biotinylation of the peptide”.

Regarding “9: histone H4 positions 6-15, For-K in position 12 (Ac-GGKGLGK(For)GGA) [Peptide 9]”, in test [1], the “enzymatic biotinylation by biotinidase, peptide-bound biotin probed with streptavidin peroxidase” value is listed as “decreased compared to the native peptide”. Consider `O=S(=O)(F)Cc1ccccc1` [PMSF, phenylmethylsulphonylfluoride], for which the “degradation of histone H1 by trypsin in the presence of the inhibitor” value in test [2] (20 mM) is recorded as “prevented”. Turning to “19: histone H4 positions 6-15, glutamine in positions 8 and 12 (Ac-GGQGLGQGGA) [Peptide 19]”, the “enzymatic biotinylation by biotinidase, peptide-bound biotin probed with streptavidin peroxidase” value in test [1] is listed as “no enzymatic biotinylation was detectable”. The same measure, in the same setting: in the case of “15: histone H4 positions 6-15, glutamate in position 8 [Peptide 15]” it was “not detectable”; in that of “14: histone H4 positions 6-15, arginine in positions 8 and 12 (Ac-GGRGLGRGGA) [Peptide 14]”, “not detected”.

As for “2: histone H4 positions 6-15, alanine in position 8 (Ac-GGAGLGKGGA) [Peptide 2]”, in test [1], the “enzymatic biotinylation by biotinidase, peptide-bound biotin probed with streptavidin peroxidase” value is given as “decreased substantially”. The same measure, in the same setting: in the case of “13: histone H4 positions 6-15, arginine in position 12 (Ac-GGKGLGRGGA) [Peptide 13]” it was “decreased moderately”; in that of “12: histone H4 positions 6-15, arginine in position 8 (Ac-GGRGLGKGGA) [Peptide 12]”, “decreased substantially”; in that of “18: histone H4 positions 6-15, glutamine in position 12 (Ac-GGKGLGQGGA) [Peptide 18]”, “decreased compared to the native peptide”. Same read-out and setting: in the case of “8: histone H4 positions 6-15, Dme-K in position 12 (Ac-GGKGLGK(Me2)GGA) [Peptide 8]” it was “decreased substantially”.

Take trypsin: the “degradation of histone H1 by gel electrophoresis” value in test [2] (37° C. for 20 min) is recorded as “degraded completely”. Take “17: histone H4 positions 6-15, glutamine in position 8 (Ac-GGQGLGKGGA) [Peptide 17]”: in test [1], the “enzymatic biotinylation by biotinidase, peptide-bound biotin probed with streptavidin peroxidase” value is recorded as “decreased compared to the native peptide”.

Regarding “3: histone H4 positions 6-15, alanine in position 12 (Ac-GGKGLGAGGA) [Peptide 3]”, the “enzymatic biotinylation by biotinidase, peptide-bound biotin probed with streptavidin peroxidase” value in test [1] is “decreased substantially”. On the same count and under the same terms, in the case of “20: histone H4 positions 6-15, D-lysine in position 12 (Ac-GGKGLG[dK]GGA) [Peptide 20]” it was “decreased only moderately”; in that of “5: histone H4 positions 6-15, Ac-K in position 8 (Ac-GGK(Ac)GLGKGGA) [Peptide 5]”, “barely detectable”. Turning to “K18,23A18-25: histone H3 amino acids 18-25, K18 and K23 substituted with alanine (AQLATAAA)”, the “enzymatic biotinylation by biotinidase, peptide-bound biotin probed with streptavidin-peroxidase” value in test [3] is reported as “No biotinylation was detected”. For `NC(=O)NCCC[C@H](N)C(=O)O` [citrulline], the “enzymatic biotinylation by biotinidase, peptide-bound biotin probed with streptavidin-peroxidase” value in test [3] is given as “relatively poor target for biotinylation”. The “enzymatic biotinylation by biotinidase, peptide-bound biotin probed with streptavidin peroxidase” value in test [4] is on record as “good targets for biotinylation”. For `NCCC[C@H](N)C(=O)O` [ornithine], the “enzymatic biotinylation by biotinidase, peptide-bound biotin probed with streptavidin-peroxidase” value in test [3] is on record as “not biotinylated”. With “K9A9-16: histone H3 amino acids 9 to 16, K9 substituted with alanine (ASTGGKAP) [Peptide K9A9-16]”, the “enzymatic biotinylation by biotinidase, peptide-bound biotin probed with streptavidin-peroxidase” value in test [3] is reported as “poor target for biotinylation”. Turning to “N16-23: histone H3 amino acids 16-23, including K18 and K23 (PRKQLATK; UniProt P68431 17-24, looked up, fragment) [Peptide N16-23]”, the “enzymatic biotinylation by biotinidase, peptide-bound biotin probed with streptavidin-peroxidase” value in test [3] is reported as “moderate target for biotinylation”. “SGRGKGGKGLGKGGAKRHR [SEQ ID NO:7, N-terminal 19 amino acids of histone H4]”: the “time at which abundance of biotinylated peptide reached a plateau” value in test [1] (incubated with plasma and biocytin for 0 to 60 min) was in the range of 20 to 60 min.

For the compound “16: histone H4 positions 6-15, glutamate in position 12 [Peptide 16]”, the “enzymatic biotinylation by biotinidase, peptide-bound biotin probed with streptavidin peroxidase” value in test [1] is given as “not detectable”.

Take “K18A16-23: histone H3 amino acids 16 to 23, K18 substituted with alanine (PRAQLATK) [Peptide K18A16-23]”: in test [3], the “enzymatic biotinylation by biotinidase, peptide-bound biotin probed with streptavidin-peroxidase” value is recorded as “weak”. Same read-out and setting: in the case of “K4A1-9: histone H3 amino acids 1 to 9, K4 substituted with alanine (ARTAQTARK) [Peptide K4A1-9]” it was “barely detectable”. For “4: histone H4 positions 6-15, alanine in positions 8 and 12 (Ac-GGAGLGAGGA) [Peptide 4]”, the “enzymatic biotinylation by biotinidase, peptide-bound biotin probed with streptavidin peroxidase” value in test [1] is “did not undergo biotinylation”.

Values taken from patent US20060286611A1, “Antibodies against biotinylated histones and related proteins and assays related thereto” (Board of Regents of University of Nebraska, priority 2005, published 2006).
